Like-named read-outs stand apart in the source and are kept apart here.
T1: Mint1 PTB domain (residues 448-623) (human, UniProt Q02410 448-623)
T1 construct: human Mint1 PTB domain, residues 448-623; pGEX6P-2; source: E. coli Rosetta BL21 (DE3), purified (glutathione-Sepharose, Prescission protease, gel filtration)
T1 sequence (looked up): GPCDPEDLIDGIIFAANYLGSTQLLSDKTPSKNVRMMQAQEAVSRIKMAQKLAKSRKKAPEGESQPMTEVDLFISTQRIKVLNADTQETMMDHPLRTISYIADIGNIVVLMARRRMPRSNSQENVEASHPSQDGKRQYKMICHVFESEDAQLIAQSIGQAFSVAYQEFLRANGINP


Experiments:
Conditions in all cases: both partners purified
[1] = target: T2, Munc18-1-His (rat, UniProt P61765 1-594)
T2 construct: Munc18-1 (STXBP1); also called Munc18a; STXBP1; source: E. coli Rosetta BL21 (DE3), purified to homogeneity as described by Hu et al

[2] = target: T2, Munc18-1-His; remark: listed apart in the source
[3] = target: T3, Munc18-1 + Sx1a (rat, UniProt P61765 1-594; P32851 1-261)
T3 construct: Munc18-1 (STXBP1), as m1; also called Munc18-1 in the presence of Sx1a; source: mixed from the purified E. coli proteins m1 and m32

[4] = target: T4, Mint1 PTB + APP (750-769) (human, UniProt Q02410 448-623); test: ITC; as a5, competition experiment with the other peptide (APP 750-769 or TJAP1 9-22) present with Mint1 PTB in the cell
T4 construct: human Mint1 PTB domain, residues 448-623, as m35; human amyloid precursor protein residues 750-769, as m36; source: mixed from purified m35 and the synthetic peptide m36

[5] = target: T1, Mint1 PTB domain (residues 448-623); test: ITC; 25 °C, 50 mM Hepes, 200 mM NaCl, 0.5 mM TCEP, 5% glycerol; 1 mM peptide titrated into 50 μM Mint1 PTB domain; 1:1 binding model
[6] = target: T5, Mint1 PTB + TJAP1 (9-22) (human, UniProt Q02410 448-623); test: ITC; as a5, competition experiment with the other peptide (APP 750-769 or TJAP1 9-22) present with Mint1 PTB in the cell
T5 construct: human Mint1 PTB domain, residues 448-623, as m35; human tight junction-associated protein 1 residues 9-22, as m37; source: mixed from purified m35 and the synthetic peptide m37

[7] = target: T2, Munc18-1-His; remark: listed apart in the source
[8] = target: T3, Munc18-1 + Sx1a; test: pull-down; GST-Mint1 MID as bait, Munc18-1 in the presence of Sx1a; Coomassie-stained gel

T2 sequence (P61765 whole entry): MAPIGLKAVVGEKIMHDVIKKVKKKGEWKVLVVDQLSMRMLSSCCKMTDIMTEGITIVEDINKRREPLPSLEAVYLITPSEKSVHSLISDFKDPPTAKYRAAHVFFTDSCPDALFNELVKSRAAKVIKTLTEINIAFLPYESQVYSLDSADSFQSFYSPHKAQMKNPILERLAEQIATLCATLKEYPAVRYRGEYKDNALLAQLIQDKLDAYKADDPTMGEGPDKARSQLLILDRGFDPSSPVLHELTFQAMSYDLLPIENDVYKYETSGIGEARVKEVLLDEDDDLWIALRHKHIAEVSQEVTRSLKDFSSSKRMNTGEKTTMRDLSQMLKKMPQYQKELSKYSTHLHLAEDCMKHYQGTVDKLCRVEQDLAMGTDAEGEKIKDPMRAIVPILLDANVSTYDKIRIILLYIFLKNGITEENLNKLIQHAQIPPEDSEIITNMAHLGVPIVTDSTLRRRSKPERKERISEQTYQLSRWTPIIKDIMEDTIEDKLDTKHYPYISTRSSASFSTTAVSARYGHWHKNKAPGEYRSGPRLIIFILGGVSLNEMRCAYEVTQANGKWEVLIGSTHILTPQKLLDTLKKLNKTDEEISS
T3 sequence (P61765 whole entry, chain 1 of 2): as the sequence (P61765 whole entry) above
T3 sequence (P32851 1-261, chain 2 of 2): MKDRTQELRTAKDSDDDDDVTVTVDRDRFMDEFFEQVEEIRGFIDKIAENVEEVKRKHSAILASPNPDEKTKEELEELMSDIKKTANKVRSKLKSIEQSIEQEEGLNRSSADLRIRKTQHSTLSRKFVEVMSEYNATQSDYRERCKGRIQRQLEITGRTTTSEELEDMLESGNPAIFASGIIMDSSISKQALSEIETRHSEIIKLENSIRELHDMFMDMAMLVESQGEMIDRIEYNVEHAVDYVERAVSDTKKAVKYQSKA

Binder	Kd [1]	dH [1]	stoichiometry N [1]	other results
EEDIDQIVAEVKQSMS (source: synthetic peptide, bought: Genscript) [Mint1_6 peptide (267-282)]	4 µM	-1.29 kcal/mol	1.2	
EQEEDIDQIVAEVKQSMS (source: synthetic peptide, bought: Genscript) [Mint1_5 peptide (265-282)]	5.6 µM	-3.48 kcal/mol	1.3	
MDSYEQEEDIDQIVAEVKQSMS (also called Mint1_1; Mint1 AHM peptide; source: synthetic peptide, bought: Genscript) [Mint1 (261-282) synthetic peptide]		-8.8 kcal/mol	0.8	dH [2]: -7.9 kcal/mol; stoichiometry N [2]: 1; dH [3]: -8.9 kcal/mol; stoichiometry N [3]: 1
PYPRMDEEEQEEDIDQIVAEVKQEMEEQEL (human Mint1 residues 257-286 with phosphomimetic Glu; source: synthetic peptide, bought: Genscript) [Mint1_3 peptide (257-286 phosphomimic)]	14 µM	-6.5 kcal/mol	1.1	
KPYRKAPPEHRELR (human tight junction-associated protein 1 residues 9-22; also called TJAP1 peptide; PILT; source: synthetic peptide (solid phase synthesis in-house, reverse-phase HPLC)) [TJAP1 (9-22) peptide]				Kd [4]: 29.4 µM; dH [4]: -7.1 kcal/mol; stoichiometry N [4]: 1; Kd [5]: 20.9 µM; dH [5]: -8.9 kcal/mol; stoichiometry N [5]: 1
QEEDIDQIVAEVKQSMS (source: synthetic peptide, bought: Genscript) [Mint1_1c peptide (266-282)]	23.1 µM	-1.2 kcal/mol	1	
SKMQQNGYENPTYKFFEQMQ (human amyloid precursor protein residues 750-769; also called APP NPxY peptide; source: synthetic peptide (solid phase synthesis in-house, reverse-phase HPLC)) [APP (750-769) peptide]				Kd [6]: 0.58 µM; dH [6]: -11.8 kcal/mol; stoichiometry N [6]: 1; Kd [5]: 0.31 µM; dH [5]: -15.6 kcal/mol; stoichiometry N [5]: 1
MDSYEQEEDIDQIVAEVKQS (source: synthetic peptide, bought: Genscript) [Mint1_7 peptide (261-280)]	19.1 µM	-1.78 kcal/mol	1	
PYPRMDSYEQEEDIDQIVAEVKQSMSSQSL (human Mint1 residues 257-286; source: synthetic peptide, bought: Genscript) [Mint1_2 peptide (257-286)]	26 µM	-4.21 kcal/mol	1.3	
GST-Mint1 MID (residues 222-314) (domain or fragment, pGEX4T-2, codon optimised; The methods call 226-314 the MID; also called GST-Mint1 (222-314); source: E. coli Rosetta BL21 (DE3), purified (glutathione-Sepharose, gel filtration)) EAAAYRQEALGARLHHYDERSDGESDSPEKEAEFAPYPRMDSYEQEEDIDQIVAEVKQSMSSQSLDKAAEDMPEAEQDLERPPTPAGGRPDSP				binding result [7]: binds
GST-Mint1 (226-314) (MID) (domain or fragment, human, UniProt Q02410 226-314, looked up, human Mint1 (X11, APBA1) residues 226-314, the MID by the methods; it could also be 222-314; also called GST-Mint1 MID; source: E. coli Rosetta BL21 (DE3), purified (glutathione-Sepharose, Superdex 75)) YRQEALGARLHHYDERSDGESDSPEKEAEFAPYPRMDSYEQEEDIDQIVAEVKQSMSSQSLDKAAEDMPEAEQDLERPPTPAGGRPDSP				binding result [7]: binds; binding result [8]: binds
SYEQEEDIDQIVAEVKQSMS (source: synthetic peptide, bought: Genscript) [Mint1_4 peptide (263-282)]	12.9 µM	-2.3 kcal/mol	1.3	

Reference: paper PMC10820826 (The Journal of Biological Chemistry, 2023)
